This data set concerns the target T1, Lin28A (GST-His6 fusion) (Homo sapiens, UniProt Q9H9Z2 1-209).
T1 sequence: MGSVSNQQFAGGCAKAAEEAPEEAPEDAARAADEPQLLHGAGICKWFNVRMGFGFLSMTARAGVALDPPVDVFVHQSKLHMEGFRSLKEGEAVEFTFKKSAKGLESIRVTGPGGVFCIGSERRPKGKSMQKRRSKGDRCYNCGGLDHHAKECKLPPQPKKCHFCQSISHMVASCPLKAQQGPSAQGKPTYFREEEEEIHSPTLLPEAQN
The experiment in a line: EMSA.

B1: Motif1 bubble duplex (dsDNA)
DNA 1: CTTCTGGCGCTGTCCATCACAAGGTGCTGAACCCAG
DNA 2: CTGGGTTCAGCACCATTTTTTGCGCCAGAAG
In the case of B1, the binding result is given as “binds”.
